Test: yeast display, Sf9 membrane polyspecificity reagent, FACS + sequencing; frameworks hold sequencing errors
Method in brief: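 In a synthetic yeast display library (Saccharomyces cerevisiae BJ5465), nanobody expression was induced with galactose for 36–48 hours. FACS gates were set low and high (top ~1%) using anti-HA fluorescence for expression and streptavidin fluorescence for binding of the Sf9 membrane reagent. Each polyreactivity label is drawn from the gate of origin.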

| Sequence | polyreactivity (PSR sort gate) |
| --- | --- |
| QVQLVESGGGLVQAGGSLRLSCAASGSTFYRYVMGWYRQAPGKERELVAAITWRGGTTYYADSVKGRFTISRDNAKNTVYLQMNRLNPEDTAVYYCNADRYLGVSEYKTYEYEYWGQGTQVTVSS | low polyreactivity |
| QVQLVESGGGLVQAGGSLRLSCAASGRIFRFNAMGWYRQAPGKERELVAAITGSGGTTFYADSVKGRFTISRDNAKNTVYLQMNSLKPEDTAVYYCITLGNWRPVYNQPRYEYWGQGTQVTVSS | high polyreactivity |
| QVQLVESGGGLVQAGGSLRLSCAASGRTFGYYTMGWYRQAPGKEREYVAAISGSGTITFYADSVKGRFTISRDNAKNTVYLQMNSLKPEDTAVYYCAADYRYGGSRGYRYDYWGQGTQVTVSS | low polyreactivity |
| QVQLVESGGGLAQAGGSLRLSCAASGNILRINGMGWYRQAPGKERELVASITRSGSTYYADSVKGRFTISRDNAKNTVYLQMNSLKPEDTAVYYCAADSRRYGVRFDYWGQGTQVTVSS | low polyreactivity |
| QVQLVESGGGLVQAGGSLRLSCAASGIIIQINAMGWYRPAPGKERELVAAITIDGTTNYADSVKGRFTISRDNAKNTVYLQMNILKPEDTAVYYCARRRSVYVWEPYQYDYWGQGTQVTVSS | low polyreactivity |
| QVQLGESGGGLVQAGGSLRLTCAASGGTFKGYAMGWYRQAPGKERELVAAISWSGVRTYYADSVKGRFTISRDNAKNTVYLQMNSLKPEDTAVYYCAASWLLRMGYWGQGTQVTVSS | high polyreactivity |
| QVKLVESGGGLVQAGGSLRLSCAAYGSTFTRNAMGWYRQAPGKERQLVAAITSGGSTNYADSVKGRFTISRDNAKNTVYLEMNSLKPEDTAVYYCAAGLGRYFYSWRYLYSIFDYWGQGTQVTVSS | low polyreactivity |
| QVQLVESGGGLVQAGGSLRLSCAASGIIFNGNTMGWYRQAPGKERELVAAITSGGTTSYADSVKGRFTISRDNAKNTVYLQMNSLKPADTAVYYCAADHPAFGPGYSFDYWGQGTQVTVSS | low polyreactivity |
| QVQLVESGGGLVQAGGSLRLSCAASGLILGYYAMGWYRQAPGKERELVAAISSTGSTNYADSVKGRFTISRDNAKNTVYLQMNSLKPEDTAVYYCAAVPPRKDYQHMDYWGQGTQVTVSS | low polyreactivity |
| QVQLVESGGGLVQAGGSLRLSCAASGSTFIGNAMGWYRQAPGKERELVAAITRSGGSTFYADSVKGRFTISRDNAKNTVYLQMNSLKPEDTAVYYCAAKGNPYRVPGSSYPKVNYWGQGTQVTVSS | high polyreactivity |
| QVQLGESGGGLVQAGGSLRLSCAASGSIFNYYTMGWYRQAPGKERELVAAISSSGGSTYYADSVKGRFTISRDNAKNTVYLQMNSRKPEDTAVYYCAALGRYFTSAGGYWGQGTQVTVSS | high polyreactivity |
| QVQLVESGGGLVQAGGSLRLSCAASGSIFKYNDMGWYRQAPGKEREWVAAIRLGGGSTSYADSVKGRFTISRDNAKNTVYLQMNSLKPEDTAVYYCNAYAVYLRYLWYDYWGQGTQVTVSS | low polyreactivity |
| QVQLVESGGGLVQAGGSLRLSCADSGRTFGPNAMGWYRQAPGKERELVAAITGGGSTYYADSVKGRFTISRDNAKNTVYLQMNSLKPEDTAVYYCAAVWTYWYYGDDYWGQGTQVTVSS | low polyreactivity |
| QVQLVESGGGLVQAGGSLRLSCAASGSTFDYNAMGWYRPAPGKERELVAVISSGTRTYYADSVKGRFTISRDNAKNTVYLQMNSLKPEDTAVYFCNKRFYPEHYYWGQGTLVTVSS | high polyreactivity |
| QVQLVESGGGLVQAGGSLRLICAASGITFYIYAMGWYRQAPGKERELVATISWSDGRTYYADSVKGRFTISRDNAKNTVYLQMNSLKPEDTAVYYCAADWWYYQFDYEYWGQGTQVTVSS | low polyreactivity |
| QVQLVESGGGLVQAGGSLRLSCAASGRIFYPYAMGWYRQAPGKERELVAAISYSGGSTFYADSVKGRFTISRDNAKNTVYLQMNSLKPEDTAVYYCIKPGLYIYGSWGQGTQVTVSS | high polyreactivity |
| QVQLVESGGGLVQAGGSLRLSCAASGYIFYYNAMGWYRQAPGKERELVADITWSGDSTYYADSVKGRFTISRYNAKNTVYLQMNSLKPEDTAVYYCAAEYLEYWDYDIMDYWGQGTQVTVSS | low polyreactivity |
| QVQLVESGGGLVQAGGSLRLSCAASGFIFYDYAMGWYRQAPGKERELVAAISSGGSTNYADSVKGRFTISRDNAKNTVYLQMNSLKPEDTAVYYCNVDYGVHVPPRDYWGQGTQVTVSS | low polyreactivity |
| QVQLVESGGGLVQAGGSLRLSCASSGIIFVYYAMGWYRQAPGKERELVAVITESGVSTYYADSVKGRFTISRDNAKNTVYLQMNSLKPEDTAVYYCNRDYPYIWHKGARYWHENDYWGQGTQVTVSS | low polyreactivity |
| QVQLVESGGGLVQAGGSLRLSCAASGFIFEPYAMGWYRQAPGTERELVAAISATDDSTYYADSVKGRFTISRDNAKNTVYLQMNSLKPEDTAVYYCNATYYIIALPYDYWGQGTQVTVSS | low polyreactivity |
| QVQLVESGGGLVQAGGSLRLSCAASGRIFYYYDMGWYRQAPGKERELVAAITYSDSSTYADSVKGRFTISRDNAKNTVYLQMNSLKPEDTAVYYCAADYVYPGVRLEMDYWGQGTQVTVSS | low polyreactivity |
| QVQLVESGGGLVQAGGSLRLSCAASGSTFSYYAMGWYRQAPGKERELVAAISWSGGSKYYADSVKGRFTISRDNAKNTVYLQMNSLKPEDTAVYYCAVYYSYWFDYWGQGTQVTVSS | high polyreactivity |

| Sequence | polyreactivity (PSR sort gate) |
| --- | --- |
| QVQLVESGGGLVQAGGSLRLSCAASGIIFDLYAMGWYRQAPGKERELVAAITYGGGSTYYADSVKGRFTISRDNAKHTVYLQMNSLQPEDTAVYYCAAVPRSGMYYWGQGTQVTVSS | high polyreactivity |
| QVQLVESGGGLVQAGGSLRLSCAASGRTFNINAMGWYRPAPGKERELVASISWGGGRTYSADSVKGRFTISRDNAKNTVYLQKNSLKPEDPAVYYCAADYAGNKGVPYYYKYNYWGQGTQVTVSS | high polyreactivity |
| QVQLVESGGGLVHAGGSLRLSCAASGSTFRHNAMGWYRQAPGKERELVAAINRSGVSTHYADSVKGRFTISRDNAKNTVYLQMNSLKPEDTAVYYCAVDSYPKSLWYYGGVYSPLDYWGQGTQVTVSS | low polyreactivity |
| QVQLVESGGGLVQAGGSLRLSCAASGRTFVNYTMGWYRQAPGKERELVAAVSWTGGRTYYADSVKGRFTISRDNAKNTVYLQMNSLKPEDTAVYYCATQPEKSGRPAIDPELYDYWGQGTQVTVSS | low polyreactivity |
| QVQLEESGGGLFQAGGSLRLSCAASGRIFDPYAMGWYRQAPGKERDLVATITLRGGITYYADSVKGRFTISRDNAKNTVYLQMNSLKPEDTAVYYCAKKVRSYVRWEYDYWGQGTQVTVSS | low polyreactivity |
| QLQLVESGGRLVQAGGSLRLSCAASGRTFGRYAMGWYIQAPGKEREFVSSISRSTGRTSYADSVKGRFTISRANAKNTVYLQMNSLKPEDTAVYYCAVRWYYYRDDTIYVLGRYDYWGQGTQVTVSS | high polyreactivity |
| QVQLVESGGGLVQAGGSLRLSSAASGRTFGRYAMGWYRQAPGKERELVAAITRSGSSTYYADSVKGRFTISRDNAKNTVYLQMNSLKPEDTAVYYCAALYGPFYSTGEYWGQGTQVTVSS | high polyreactivity |
| QVQLVDSGGGLVQAGGSLRLSCAASGITFNLYAMGWYRQAPGKERELVAAISNVGSTKYADSVKGRFTISRDNAKNTVYLQMTSLKPEDTAVYYCAADWDRYPDYDYWGQGTQVTVSS | low polyreactivity |
| QVQLVESGGGLVQAGGSLRLSCAACGSIFPRNAMGWYIQAPGKDRALVASLNSGGSTNYADSVKGRFTISRDNAKYTVYLHMNSLKPEDSAGYYCAAVRPWWRNKPQWPRYDYWGQGTQVTVSS | low polyreactivity |
| QVQLVESGGGLVQAGGSLRLSCAASGIIFRYYTMGWYRQAPGKEREFVAAITGSSGSTYADSVKGRFTISRDNAKNTVYLQMNSLKPEDTAVYYCNADSYSIWVYGEYDYWGQGTQVTVSS | high polyreactivity |
| QVQLVESGGGLVQAGGSLRLSCAASGIFVDNAMGWYRQAPGKERELVAAITSSTDSTYYADSVKGRFTISRDNAKNTVYLQMNSLKPEDTAVYYCAVARPGGFYFLVHYGYGYWGQGPQVTVSS | low polyreactivity |
| QEQLVESGGGLVQAGGTLRLSCDASVSTQWYNAMGWYRQAPGKERELVATITAGGGSTYYADSVKGRFTISRDNAKNTVYLQMNSLKREDTAVYYCATRYTPAQLDYWGQGTQVTVSS | low polyreactivity |
| QVQLVESGGGLVQAGGSLRLSCAASGRTIQYYTMGWYRQAPGKERELVAGITYRGSSTYYADSVKGRFTISRDNAKNTVYLQMNSLKPEDTAVYYCAAGYWAYVWYYYWGQGTQVTVSS | high polyreactivity |
| QVQLVESGGGLVQAGGSLRLSCAASGSILRYYAMGWYRQAPGKERELVAAITGRGGRTYYADSVKGRFTISRDNAKYTVYLQMNSLKPEDTAVYYCAADGDNPYLHEEDYWGQGTQVTVSS | high polyreactivity |
| QVQLVESGGGLVQAGGSLRLICAASGSTFYDNTMGWYRQAPGKERELVAAISSGGGTYYADSVKGRFTISRDNAKNTVYLQMNSLKPEDTSVYYCNADQTAYGKPGRAYGFDYWGQGTQVTVSS | low polyreactivity |
| QVQLVESGGGLLQAGGSLRLSCAASGFIFRGYNMGWYRQAPGKERELVAAITTTSSTYYADSVKGRFTISRDNAKNTVYLQMNSLKPEDTAVYYCAALFYRYGYLYNYWGQGTQVTVSS | high polyreactivity |
| QVQLVESGGGLVQAGGSLRLSCAASGRTFRYYTMGWYRQAPGKEREFVAAISSTGGTYYADSVKGRFTISRDNAKNTVYLQMNSQKPEDTAVYYCAATVIQVVVNVQLYDYDYWGQGTEVTVSS | low polyreactivity |
| QVQLVESGGGLVQAGGSLRLSCAASGLIFYGYVMGWYRQAPGKERELVAGISRNSGSTYYADSVKGRFTISRDNAKTTVYLQMNSLKPEDTAVYYCAKAYYRRYAAPGYDYWGQGTQVTVSS | low polyreactivity |
| QVQLVESGGGLVQAGGSLRLSCAASGRTFVTYAMGWYRQAPGKERELVAVITNGGGTYYADSVKGRFTISRDNAKNTVYLQMNSLKPEDTALYYCNNDRYGLRRWVYSYLGGYDYWGQGTQVTVSS | low polyreactivity |
| QVQQLESAGGLVQAGGSLRLSCAASGTITVLYKMGWFRQAPGKEREFVASINYGTSTYYADSVKGRFSVSPDSAKHTVYLQMNSLNPEDTAVYYCAAAYRWQDVYRYWGLGTQVTVSS | low polyreactivity |
| EVQLVESGAGLLQAGGSLRISCAASGITLAYYAMGGYRQAPGTERELVAVINIGVSTDYADSVKGRFTISRDNAKNTVYVQMTSLKPEDTAVYYSAAGWGRRWPQYNYWGQGTQVTVSS | high polyreactivity |
